In paper PMC7855791:
Like-named read-outs stand apart in the source and are kept apart here.

Key:
[1] = biological target: T1, Spo11 wild type (core complex subunit);Ski8;Rec102;Rec104 (Saccharomyces cerevisiae;Saccharomyces …, UniProt P23179;Q02793;Q02721;P33323 1-398;1-397;1-264;1-182, |||); experiment: FeBABE footprinting
[2] = biological target: T1, Spo11 wild type (core complex …); experiment: FeBABE footprinting; remark: listed apart in the source

T1 sequence (P23179 whole entry, chain 1 of 4): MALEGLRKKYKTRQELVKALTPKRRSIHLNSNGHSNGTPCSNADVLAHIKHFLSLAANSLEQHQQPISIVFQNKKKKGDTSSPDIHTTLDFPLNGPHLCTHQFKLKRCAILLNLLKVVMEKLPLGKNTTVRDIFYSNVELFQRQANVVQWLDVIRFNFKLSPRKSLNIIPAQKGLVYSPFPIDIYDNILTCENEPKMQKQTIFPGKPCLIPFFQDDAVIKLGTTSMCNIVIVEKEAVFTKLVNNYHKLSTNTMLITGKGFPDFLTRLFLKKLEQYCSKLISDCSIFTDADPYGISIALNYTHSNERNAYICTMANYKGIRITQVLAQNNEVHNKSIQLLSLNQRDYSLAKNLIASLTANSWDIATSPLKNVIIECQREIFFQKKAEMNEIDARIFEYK
T1 sequence (Q02793 whole entry, chain 2 of 4): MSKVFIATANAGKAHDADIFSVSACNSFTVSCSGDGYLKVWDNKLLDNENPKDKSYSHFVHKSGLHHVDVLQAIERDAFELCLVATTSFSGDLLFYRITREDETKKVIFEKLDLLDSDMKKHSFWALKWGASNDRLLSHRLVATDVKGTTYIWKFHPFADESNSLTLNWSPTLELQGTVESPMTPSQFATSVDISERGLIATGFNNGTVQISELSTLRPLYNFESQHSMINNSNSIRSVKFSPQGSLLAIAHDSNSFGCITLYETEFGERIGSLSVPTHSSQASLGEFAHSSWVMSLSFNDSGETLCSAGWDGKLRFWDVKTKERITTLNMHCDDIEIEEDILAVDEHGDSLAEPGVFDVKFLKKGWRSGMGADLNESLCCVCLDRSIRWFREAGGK
T1 sequence (Q02721 whole entry, chain 3 of 4): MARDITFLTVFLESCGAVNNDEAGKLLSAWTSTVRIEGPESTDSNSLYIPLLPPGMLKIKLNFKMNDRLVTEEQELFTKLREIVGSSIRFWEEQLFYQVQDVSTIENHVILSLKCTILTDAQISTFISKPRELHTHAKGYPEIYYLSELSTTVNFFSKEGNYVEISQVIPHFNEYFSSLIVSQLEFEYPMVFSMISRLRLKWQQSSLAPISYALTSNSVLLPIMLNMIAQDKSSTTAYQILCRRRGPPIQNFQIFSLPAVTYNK
T1 sequence (P33323 whole entry, chain 4 of 4): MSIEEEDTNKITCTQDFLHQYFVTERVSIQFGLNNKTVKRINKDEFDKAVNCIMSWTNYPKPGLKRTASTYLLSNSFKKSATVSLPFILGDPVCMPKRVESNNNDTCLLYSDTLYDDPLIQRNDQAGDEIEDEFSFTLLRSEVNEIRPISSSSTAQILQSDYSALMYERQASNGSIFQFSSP

B1: 5'-TA-distal FeBABE probe (cb958/cb960) (dsDNA)
DNA 1: TAGCAATGTAATCGTCTATGACGTT
DNA 2: AACGTCATAGACGATTACATTGC
modifications: 5 phosphorothioates with FeBABE on strand 2 (after nt 2,4,6,8,10)
binding result [1]: binds

B2: 5'-TA-proximal FeBABE probe (cb958/cb961) (dsDNA)
DNA 1: TAGCAATGTAATCGTCTATGACGTT
DNA 2: AACGTCATAGACGATTACATTGC
modifications: 5 phosphorothioates with FeBABE on strand 2 (after nt 13,15,17,19,21)
binding result [2]: binds
